Test results reported in the supplement of paper PMC10126150.
± gives the standard deviation of the averaged measurements.

Tested on: ATP
Test: switch fluorescence ratio, 500 uM ATP over buffer (Cy3 cluster intensity, sum of 5 cycles each) (fold (ratio)); higher = stronger signal-on switching upon ATP binding; sequences stand for … in TCGTCGGCAGCGTCAGATGTGTATAAGAGACAGTTTTTTTTTTTTTTTTTTTTTTTTT…TC
Conditions: aptamer strand: ATP DNA aptamer (quencher-CACCTGGGGGAGTATTGCGGAGGAAGG + anchor), 100 nM annealed; ATP concentration: 500 uM
In short: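 Cy3-labelled switching-strand clusters on a modified Illumina MiSeq flow-cell were annealed to 100 nM quencher-labelled ATP aptamer and imaged first in selection buffer, then after 15 min with 500 uM ATP at 22 °C. NaOH stripping and re-annealing separated each of five buffer/ATP cycles, and clusters outside 100-1000 RFU were excluded. The fluorescence ratio sums target-cycle Cy3 intensity over buffer-cycle Cy3 intensity per cluster and averages it per switch-domain sequence.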
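Also: ATP exposure 15 min at 22 °C before imaging.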

ATGAGAGAAT
switch fluorescence ratio: 1.0144 ± 0.0004

ATGAGAGCGG
switch fluorescence ratio: 0.996 ± 0.096

ATGAGAGGGC
switch fluorescence ratio: 1.054 ± 0.0092

ATGAGCGCAC
switch fluorescence ratio: 1.06 ± 0.024

ATGAGCGGGG
switch fluorescence ratio: 0.98 ± 0.058

ATGAGCGTCA
switch fluorescence ratio: 0.9904 ± 0.0017

ATGAGGCAGT
switch fluorescence ratio: 1.12 ± 0.039

ATGAGGGCCA
switch fluorescence ratio: 1.01 ± 0.059

ATGAGGGGCG
switch fluorescence ratio: 1.02 ± 0.041

ATGAGGTAGG
switch fluorescence ratio: 1.03 ± 0.05

ATGAGGTCTC
switch fluorescence ratio: 0.98 ± 0.046

ATGAGGTGAT
switch fluorescence ratio: 1.057 ± 0.0041

ATGAGGTGGG
switch fluorescence ratio: 0.992 ± 0.036

ATGAGGTTGC
switch fluorescence ratio: 0.978 ± 0.011

ATGAGTCCGT
switch fluorescence ratio: 1.16 ± 0.017

ATGAGTTCTC
switch fluorescence ratio: 1 ± 0.042

ATGATACAGT
switch fluorescence ratio: 1.021 ± 0.0067

ATGATAGAGA
switch fluorescence ratio: 1.06 ± 0.021

ATGATAGATA
switch fluorescence ratio: 1.004 ± 0.0047

ATGATAGCTT
switch fluorescence ratio: 1 ± 0.026

ATGATATTTG
switch fluorescence ratio: 1.009 ± 0.006

ATGATCAAAT
switch fluorescence ratio: 1 ± 0.054

ATGATCAGTG
switch fluorescence ratio: 0.98 ± 0.056

ATGATCCGTT
switch fluorescence ratio: 1.001 ± 0.0059

ATGATCTTCC
switch fluorescence ratio: 2.3 ± 0.091

ATGATGACGA
switch fluorescence ratio: 1.06 ± 0.11

ATGATGGTGG
switch fluorescence ratio: 1.02 ± 0.057

ATGATGGTTC
switch fluorescence ratio: 1.01 ± 0.012

ATGATGTAGG
switch fluorescence ratio: 1.033 ± 0.0075

ATGATGTATG
switch fluorescence ratio: 0.989 ± 0.027

ATGATGTGGA
switch fluorescence ratio: 1.01 ± 0.077

ATGATGTTGA
switch fluorescence ratio: 1 ± 0.04

ATGATTTGAG
switch fluorescence ratio: 0.9905 ± 0.0022

ATGCAAACGA
switch fluorescence ratio: 1.23 ± 0.065

ATGCAATGGA
switch fluorescence ratio: 1 ± 0.064

ATGCACCAGG
switch fluorescence ratio: 2.55 ± 0.19

ATGCACGTAT
switch fluorescence ratio: 1.03 ± 0.048

ATGCACTCGA
switch fluorescence ratio: 1.03 ± 0.012

ATGCAGCGGG
switch fluorescence ratio: 1.01 ± 0.028

ATGCAGGATT
switch fluorescence ratio: 0.981 ± 0.02

ATGCAGTCTA
switch fluorescence ratio: 1.017 ± 0.005

ATGCATCGGG
switch fluorescence ratio: 0.9974 ± 0.0049

ATGCATGATT
switch fluorescence ratio: 0.9822 ± 0.0051

ATGCATGGAG
switch fluorescence ratio: 1.03 ± 0.016

ATGCATGGTT
switch fluorescence ratio: 1.02 ± 0.054

ATGCCCAGGG
switch fluorescence ratio: 1.61 ± 0.04

ATGCGAGTAT
switch fluorescence ratio: 1.023 ± 0.0018

ATGCGCACGG
switch fluorescence ratio: 1.064 ± 0.009

ATGCGCCCTG
switch fluorescence ratio: 1 ± 0.015

ATGCGGGATT
switch fluorescence ratio: 1.01 ± 0.023

ATGCGGTAGA
switch fluorescence ratio: 1.02 ± 0.042

ATGCGTGTTT
switch fluorescence ratio: 1.003 ± 0.0014

ATGCTAAAAG
switch fluorescence ratio: 1.008 ± 0.0096

ATGCTATGTA
switch fluorescence ratio: 1.01 ± 0.033

ATGCTCAGTT
switch fluorescence ratio: 0.9836 ± 0.0062

ATGCTCTGCC
switch fluorescence ratio: 0.992 ± 0.029

ATGCTGCCTG
switch fluorescence ratio: 1.01 ± 0.019

ATGCTGGGTC
switch fluorescence ratio: 0.973 ± 0.028

ATGCTTATCA
switch fluorescence ratio: 0.9807 ± 0.0051

ATGGAAAAAG
switch fluorescence ratio: 0.963 ± 0.046

ATGGAAAAGA
switch fluorescence ratio: 0.978 ± 0.016

ATGGAAAGCA
switch fluorescence ratio: 1.05 ± 0.029

ATGGAAATGG
switch fluorescence ratio: 0.996 ± 0.024

ATGGAAGGTT
switch fluorescence ratio: 0.991 ± 0.033

ATGGACCTGC
switch fluorescence ratio: 1.06 ± 0.064

ATGGACGCTA
switch fluorescence ratio: 1.12 ± 0.048

ATGGACGGGT
switch fluorescence ratio: 0.996 ± 0.03

ATGGAGGCGT
switch fluorescence ratio: 0.994 ± 0.015

ATGGATAAGA
switch fluorescence ratio: 1 ± 0.014

ATGGATGTGG
switch fluorescence ratio: 0.979 ± 0.055

ATGGATGTTA
switch fluorescence ratio: 0.978 ± 0.032

ATGGATTTGC
switch fluorescence ratio: 1.02 ± 0.081

ATGGCACCGG
switch fluorescence ratio: 1.018 ± 0.0069

ATGGCAGGCA
switch fluorescence ratio: 0.9929 ± 0.0054

ATGGCCGAGT
switch fluorescence ratio: 1.03 ± 0.038

ATGGCTAATA
switch fluorescence ratio: 0.9806 ± 0.0057

ATGGCTACCG
switch fluorescence ratio: 1.01 ± 0.033

ATGGGAGAAT
switch fluorescence ratio: 0.9801 ± 0.009

ATGGGAGGCG
switch fluorescence ratio: 0.982 ± 0.043

ATGGGATGGC
switch fluorescence ratio: 0.97 ± 0.031

ATGGGATTAA
switch fluorescence ratio: 1.032 ± 0.0025

ATGGGCAGTC
switch fluorescence ratio: 1.21 ± 0.41

ATGGGCCCAT
switch fluorescence ratio: 1.01 ± 0.011

ATGGGCGATG
switch fluorescence ratio: 1.01 ± 0.055

ATGGGCGGGT
switch fluorescence ratio: 1 ± 0.035

ATGGGCTGAA
switch fluorescence ratio: 1.021 ± 0.0092

ATGGGGAAAT
switch fluorescence ratio: 0.984 ± 0.021

ATGGGGACGG
switch fluorescence ratio: 1.013 ± 0.0035

ATGGGGATCA
switch fluorescence ratio: 1.017 ± 0.0022

ATGGGGATTA
switch fluorescence ratio: 0.9956 ± 0.0092

ATGGGGATTT
switch fluorescence ratio: 0.991 ± 0.01

ATGGGGGAAA
switch fluorescence ratio: 0.991 ± 0.011

ATGGGGGAAC
switch fluorescence ratio: 0.975 ± 0.011

ATGGGGGCCA
switch fluorescence ratio: 0.974 ± 0.019

ATGGGGGGAT
switch fluorescence ratio: 1.23 ± 0.58

ATGGGGGGGC
switch fluorescence ratio: 1.01 ± 0.022

ATGGGGGGGT
switch fluorescence ratio: 0.999 ± 0.025

ATGGGGGGTA
switch fluorescence ratio: 0.986 ± 0.044

ATGGGGGGTC
switch fluorescence ratio: 0.985 ± 0.041

ATGGGGGTAA
switch fluorescence ratio: 1.01 ± 0.024

ATGGGGGTCA
switch fluorescence ratio: 0.998 ± 0.015

ATGGGGGTTA
switch fluorescence ratio: 0.987 ± 0.04

ATGGGGTGTC
switch fluorescence ratio: 0.943 ± 0.067

ATGGGTAGTT
switch fluorescence ratio: 0.977 ± 0.022

ATGGGTATTG
switch fluorescence ratio: 1.009 ± 0.0039

ATGGGTCCAG
switch fluorescence ratio: 1.01 ± 0.019

ATGGGTCTCG
switch fluorescence ratio: 0.966 ± 0.019

ATGGTAGCAA
switch fluorescence ratio: 2.05 ± 0.14

ATGGTATTTG
switch fluorescence ratio: 0.998 ± 0.037

ATGGTCGCGG
switch fluorescence ratio: 0.985 ± 0.035

ATGGTCTTTT
switch fluorescence ratio: 1.014 ± 0.0032

ATGGTGAGGA
switch fluorescence ratio: 0.995 ± 0.018

ATGGTGCGGA
switch fluorescence ratio: 0.956 ± 0.06

ATGGTGCGGT
switch fluorescence ratio: 0.987 ± 0.02

ATGGTGGGGA
switch fluorescence ratio: 1.03 ± 0.03

ATGGTGGTTT
switch fluorescence ratio: 0.998 ± 0.063

ATGGTGTTAT
switch fluorescence ratio: 0.989 ± 0.014

ATGGTTGAGG
switch fluorescence ratio: 0.987 ± 0.031

ATGGTTTCGA
switch fluorescence ratio: 0.982 ± 0.04

ATGGTTTCGC
switch fluorescence ratio: 0.9932 ± 0.0067

ATGGTTTCTT
switch fluorescence ratio: 1 ± 0.034

ATGTAAAATT
switch fluorescence ratio: 0.972 ± 0.038

ATGTAACTAT
switch fluorescence ratio: 1.03 ± 0.021

ATGTAAGATT
switch fluorescence ratio: 0.9891 ± 0.0047

ATGTAATCAC
switch fluorescence ratio: 1.04 ± 0.049

ATGTAATTCG
switch fluorescence ratio: 1.002 ± 0.0086

ATGTAGCGAC
switch fluorescence ratio: 1.44 ± 0.39

ATGTAGGAAC
switch fluorescence ratio: 0.999 ± 0.012

ATGTAGGTTA
switch fluorescence ratio: 0.987 ± 0.018

ATGTAGTTCC
switch fluorescence ratio: 1.064 ± 0.0022

ATGTATGATA
switch fluorescence ratio: 0.967 ± 0.013

ATGTATGTTA
switch fluorescence ratio: 0.978 ± 0.055

ATGTATTTAT
switch fluorescence ratio: 1.04 ± 0.061

ATGTCAGGAA
switch fluorescence ratio: 1.02 ± 0.041

ATGTCCCGGT
switch fluorescence ratio: 0.974 ± 0.025

ATGTCCCGTT
switch fluorescence ratio: 0.98 ± 0.014

ATGTCCGGGG
switch fluorescence ratio: 0.985 ± 0.042

ATGTCCGGGT
switch fluorescence ratio: 1.03 ± 0.032

ATGTCCGGTT
switch fluorescence ratio: 1 ± 0.019

ATGTCGATGC
switch fluorescence ratio: 1.01 ± 0.032

ATGTCGGTCG
switch fluorescence ratio: 1.02 ± 0.012

ATGTCTTGGC
switch fluorescence ratio: 0.998 ± 0.03

ATGTCTTGTG
switch fluorescence ratio: 0.985 ± 0.026

ATGTGAAGAG
switch fluorescence ratio: 0.9952 ± 0.003

ATGTGACTGG
switch fluorescence ratio: 0.986 ± 0.044

ATGTGAGGGT
switch fluorescence ratio: 1.017 ± 0.0039

ATGTGAGTAT
switch fluorescence ratio: 0.9753 ± 0.0028

ATGTGCAGCG
switch fluorescence ratio: 1.025 ± 0.0049

ATGTGCCTGC
switch fluorescence ratio: 1.07 ± 0.03

ATGTGCGTAG
switch fluorescence ratio: 1.01 ± 0.017

ATGTGGGCAA
switch fluorescence ratio: 1.08 ± 0.013

ATGTGGGCTA
switch fluorescence ratio: 0.992 ± 0.03

ATGTGGGGAC
switch fluorescence ratio: 1.01 ± 0.084

ATGTGGGGGG
switch fluorescence ratio: 0.992 ± 0.039

ATGTGGTCT
switch fluorescence ratio: 1.02 ± 0.03

ATGTGTAAAG
switch fluorescence ratio: 0.98 ± 0.017

ATGTGTCTAT
switch fluorescence ratio: 0.998 ± 0.036

ATGTTAAACG
switch fluorescence ratio: 1.007 ± 0.0024

ATGTTAGAAA
switch fluorescence ratio: 1.02 ± 0.032

ATGTTAGGG
switch fluorescence ratio: 0.98 ± 0.011

ATGTTAGGTT
switch fluorescence ratio: 1 ± 0.029

ATGTTATGAA
switch fluorescence ratio: 1.06 ± 0.11

ATGTTCACGG
switch fluorescence ratio: 1.01 ± 0.033

ATGTTGAGCT
switch fluorescence ratio: 1.019 ± 0.0023

ATGTTGGGAC
switch fluorescence ratio: 1.02 ± 0.032

ATGTTGTCGG
switch fluorescence ratio: 0.987 ± 0.022

ATGTTGTTGG
switch fluorescence ratio: 0.9676 ± 0.007

ATGTTTAATC
switch fluorescence ratio: 0.986 ± 0.023

ATGTTTATAG
switch fluorescence ratio: 0.98 ± 0.024

ATGTTTCTGA
switch fluorescence ratio: 0.9851 ± 0.0032

ATGTTTTATA
switch fluorescence ratio: 1.02 ± 0.023

ATGTTTTCTC
switch fluorescence ratio: 0.993 ± 0.013

ATGTTTTCTT
switch fluorescence ratio: 0.998 ± 0.016

ATGTTTTTAC
switch fluorescence ratio: 0.949 ± 0.029

ATGTTTTTTG
switch fluorescence ratio: 0.982 ± 0.023

ATTAAAAGA
switch fluorescence ratio: 1.01 ± 0.023

ATTAAAAGGA
switch fluorescence ratio: 0.991 ± 0.073

ATTAAAAGTG
switch fluorescence ratio: 0.986 ± 0.013

ATTAAAATAC
switch fluorescence ratio: 1.09 ± 0.11

ATTAAAGTGC
switch fluorescence ratio: 0.999 ± 0.027

ATTAAATATC
switch fluorescence ratio: 1.03 ± 0.024

ATTAAATGGG
switch fluorescence ratio: 0.976 ± 0.036

ATTAAATTCG
switch fluorescence ratio: 1 ± 0.017

ATTAAATTTT
switch fluorescence ratio: 1.01 ± 0.032

ATTAACTGCT
switch fluorescence ratio: 0.9932 ± 0.0058

ATTAAGCGGC
switch fluorescence ratio: 1.05 ± 0.13

ATTAAGGA
switch fluorescence ratio: 1 ± 0.051

ATTAAGGTCG
switch fluorescence ratio: 1.07 ± 0.023

ATTAAGGTGC
switch fluorescence ratio: 1.31 ± 0.075

ATTAAGTGTT
switch fluorescence ratio: 0.984 ± 0.042

ATTAATAGG
switch fluorescence ratio: 0.997 ± 0.026

ATTAATGGGT
switch fluorescence ratio: 1.02 ± 0.027

ATTAATGTTG
switch fluorescence ratio: 1.054 ± 0.0067

ATTACAACGA
switch fluorescence ratio: 1.015 ± 0.0032

ATTACATGTA
switch fluorescence ratio: 0.9871 ± 0.0098

ATTACGAAGA
switch fluorescence ratio: 1.01 ± 0.011

ATTACGCTGG
switch fluorescence ratio: 1.01 ± 0.024

ATTACTCTAC
switch fluorescence ratio: 1.27 ± 0.025

ATTACTTTTT
switch fluorescence ratio: 1 ± 0.027

ATTAGAAGGT
switch fluorescence ratio: 0.994 ± 0.051
